The values that follow come from paper PMC2932750 (Biochemistry, 2010).

One may read the IC50 as the concentration that gives 50% inhibition. Lower therefore signals higher potency.

Where no end group is shown, it is not given here. Where only a bound is given, the exact number is not on record here.

T1 sequence (P29317 24-537): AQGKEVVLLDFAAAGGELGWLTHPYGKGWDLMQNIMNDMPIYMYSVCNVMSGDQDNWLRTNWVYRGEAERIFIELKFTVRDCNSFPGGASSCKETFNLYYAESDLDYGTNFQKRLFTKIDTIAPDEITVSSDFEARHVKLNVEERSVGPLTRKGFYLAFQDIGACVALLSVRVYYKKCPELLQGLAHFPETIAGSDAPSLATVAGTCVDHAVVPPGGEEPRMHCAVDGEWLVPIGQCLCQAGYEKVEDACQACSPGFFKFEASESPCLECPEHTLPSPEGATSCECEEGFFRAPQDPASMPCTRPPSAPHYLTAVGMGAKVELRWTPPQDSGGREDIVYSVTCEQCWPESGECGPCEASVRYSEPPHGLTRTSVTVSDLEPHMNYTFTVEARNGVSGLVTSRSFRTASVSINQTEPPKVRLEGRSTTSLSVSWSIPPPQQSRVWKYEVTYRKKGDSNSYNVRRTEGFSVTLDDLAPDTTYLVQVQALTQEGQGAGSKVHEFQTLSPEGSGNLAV

The first experiment has as its target T1, EphA2 ligand-binding domain fused to human Fc (EphA2 Fc) (UniProt P29317 24-537). The experiment can be described thus: ELISA. For orientation: In an ELISA, binding on a coated surface is turned into a signal by an enzyme label.
As for YSAAPDSVPMMS (C-terminal amide if made in house) [Ala-4 peptide (YSA-12mer with alanine at position 4)], the IC50 was above 100 µM.

Another experiment addresses T1, EphA2 ligand-binding domain fused to …. In words: ELISA. This is another data set of the same source.
In the case of YSAFPDSVPMMS (C-terminal amide if made in house) [YSAF-12mer], the IC50 came out at 47 µM.

As for SWLAYPDSVPMMS (C-terminal amide if made in house) [SWLA-13mer], the IC50 turned out to be 6.5 µM. This IC50 is about 7.2-fold lower than that of the molecule before.

Take YSAYPDSVPC (free C-terminal cysteine thiol; C-terminal amide if made in house) [YSA-C-10mer (monomeric)]: the concentration for half-maximal inhibition (IC50) was determined as 5.2 µM. This IC50 and that of the molecule before are within 1.5-fold of each other.

Consider YSAYPDSVPC (also: homodimer, disulfide between C-terminal cysteines of the two chains) [dimerized YSA-C-10mer], for which the IC50 came to 1.8 µM.

In turn, YSSYPDSVPMMS (C-terminal amide if made in house) [YSS-12mer] yielded an IC50 above 100 µM.

Molecule SWLAYPDSVPC (free C-terminal cysteine thiol; C-terminal amide if made in house) [SWLA-C-11mer] yielded an IC50 of 3.7 µM. This counts as single-digit micromolar.

For the molecule SWLAYPDSVP (C-terminal amide if made in house) [SWLA-10mer], the IC50 was determined as 39 µM. Against the preceding molecule, the IC50 is about 11-fold higher.
